# Patent publication US6602854B1, “Branched multimeric Apo A-I agonist compounds” (priority 1997, dated 2003)
# Where two headings read alike, the source gives them in different places.
# Tests used:
# [1] = Circular dichroism: degree of helicity (free, SUVs, micelles, TFE); details: for % Helicity Free: free in buffer
# Outline: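 Far-UV CD (190–260 nm) at 37 °C on 5 μM peptide in 5 mM phosphate pH 7.4, either free, with EPC:Chol 20:1 SUVs (Ri 30 or 50), with lysophosphatidylcholine micelles (Ri 100), or in 90% TFE. Helicity derived from mean residue ellipticity at 222 nm or CONTIN fitting to reference spectra.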
# [2] = Pharmacokinetics in mice (radiolabeled peptide, intraperitoneal); type: in vivo; details: for HALF-LIFE: 2.5 mg/kg intraperitoneal
# Experimental: In each experiment, 2.5 mg/kg radiolabeled peptide was injected intraperitoneally into mice which were fed normal mouse chow or the atherogenic Thomas-Harcroft modified diet (resulting in severely elevated VLDL and IDL cholesterol). Blood samples were taken at multiple time intervals for assessment of radioactivity in plasma.
# HDL in human plasma = details: for Radioactivity in 300 μl: 50 μl value multiplied by 6
# Experimental: Human plasma (2 ml) was incubated with 20, 40, 60, 80, and 100 μg of ^14C-labeled peptide peptide 4 for 2 hr. at 37° C. The lipoproteins were separated by adjusting the density to 1.21 g/ml and centrifugation in TLA 100.3 rotor at 100,000 rpm (300,000 g) for 36 hr. at 4° C. The top 900 μl (in 300 μl fractions) was taken for the analysis. 50 μl from each 300 μl fraction was counted for radioactivity and 200 μl from each fraction was analyzed by FPLC (Superose 6/Superose 12 combination column).
sequence,measurement,setting,value
PVLDLFRELLNELLEALKQKLK [peptide 4],% helicity in the presence of SUVs,[1],97%
same,% helicity in the presence of TFE,[1],94%
same,% Helicity Bound (micelles),[1]; peptide concentration 0.15 μM,65%
same,% Helicity Free,[1]; peptide concentration 0.15 μM,42%
same,% Helicity Bound (micelles),[1]; peptide concentration 0.40 μM,68%
same,% Helicity Free,[1]; peptide concentration 0.40 μM,58%
same,% Helicity Free,[1]; peptide concentration 2.0 μM,63%
same,% Helicity Bound (micelles),[1]; peptide concentration 5.0 μM,95%
same,% Helicity Free,[1]; peptide concentration 5.0 μM,80%
same,% Helicity TFE,[1]; peptide concentration 50.0 μM,94%
same,He (%) free,"[1]; percent helicity of free, unbound peptide",80%
same,He (%) SUVs,[1]; percent helicity of peptide-SUV complexes,97%
same,He (%) TFE,[1]; percent helicity of peptide-TFE solution,94%
same,He (%) mics,[1]; percent helicity of peptide-micelle complexes,95%
same,stability of the α-helical structure with temperature,"[1]; temperature range of 5-45° C., data not shown",completely stable
same,maximum serum concentration reached,[2]; ApoE knockout mice,^5The maximum serum concentration reached was 17.4% injected % injected cpm
same,time of maximum serum concentration following injection,[2]; ApoE knockout mice,cpm at 1.46 hours following injection. r^2 = 0.973.
same,HALF-LIFE,[2]; ApoE knockout mice,14.2^5 hours
same,maximum serum concentration reached,"[2]; C57BL/6 mice, normal diet",^1The maximum serum concentration reached was 25.7% injected % injected cpm
same,time of maximum serum concentration following injection,"[2]; C57BL/6 mice, normal diet",cpm at 1.9 hours following injection. r^2 = 0.960.
same,HALF-LIFE,"[2]; C57BL/6 mice, normal diet",5.72^1 hours
same,time of maximum serum concentration following injection,"[2]; C57Bl/6 mice, high fat diet",cpm at 2.98 hours following injection. r^2 = 0.973.
same,HALF-LIFE,"[2]; C57Bl/6 mice, high fat diet",5.98^2 hours
same,association with plasma components in mice (in words),"[2]; mice, intraperitoneal",associated with the HDL component
same,time the peptide remained stable in the circulation,"[2]; mice, intraperitoneal",at least 6 hours
same,Radioactivity in 50 μl,"HDL in human plasma; 20 μg peptide in 2 ml human plasma, Fraction No. 1",1407 cpm
same,Recovery,"HDL in human plasma; 20 μg peptide, Fraction No. 1",71.6%
same,Radioactivity in 300 μl,"HDL in human plasma; 20 μg peptide, Fraction No. 1",8442 cpm
same,Radioactivity in 50 μl,"HDL in human plasma; 20 μg peptide, Fraction No. 2",405 cpm
same,Recovery,"HDL in human plasma; 20 μg peptide, Fraction No. 2",20.6%
same,Radioactivity in 300 μl,"HDL in human plasma; 20 μg peptide, Fraction No. 2",2430 cpm
same,Radioactivity in 50 μl,"HDL in human plasma; 20 μg peptide, Fraction No. 3",152 cpm
same,Recovery,"HDL in human plasma; 20 μg peptide, Fraction No. 3",7.7%
same,Radioactivity in 300 μl,"HDL in human plasma; 20 μg peptide, Fraction No. 3",912 cpm
same,Radioactivity in 50 μl,"HDL in human plasma; 40 μg peptide, Fraction No. 1",2538 cpm
same,Recovery,"HDL in human plasma; 40 μg peptide, Fraction No. 1",70.4%
same,Radioactivity in 300 μl,"HDL in human plasma; 40 μg peptide, Fraction No. 1",15228 cpm
same,Radioactivity in 50 μl,"HDL in human plasma; 40 μg peptide, Fraction No. 2",721 cpm
same,Recovery,"HDL in human plasma; 40 μg peptide, Fraction No. 2",20%
same,Radioactivity in 300 μl,"HDL in human plasma; 40 μg peptide, Fraction No. 2",4326 cpm
same,Radioactivity in 50 μl,"HDL in human plasma; 40 μg peptide, Fraction No. 3",347 cpm
same,Recovery,"HDL in human plasma; 40 μg peptide, Fraction No. 3",9.6%
same,Radioactivity in 300 μl,"HDL in human plasma; 40 μg peptide, Fraction No. 3",2082 cpm
same,Radioactivity in 50 μl,"HDL in human plasma; 60 μg peptide, Fraction No. 1",4492 cpm
same,Recovery,"HDL in human plasma; 60 μg peptide, Fraction No. 1",75.5%
same,Radioactivity in 300 μl,"HDL in human plasma; 60 μg peptide, Fraction No. 1",26952 cpm
same,Radioactivity in 50 μl,"HDL in human plasma; 60 μg peptide, Fraction No. 2",1107 cpm
same,Recovery,"HDL in human plasma; 60 μg peptide, Fraction No. 2",18.6%
same,Radioactivity in 300 μl,"HDL in human plasma; 60 μg peptide, Fraction No. 2",6642 cpm
same,Radioactivity in 50 μl,"HDL in human plasma; 60 μg peptide, Fraction No. 3",354 cpm
same,Recovery,"HDL in human plasma; 60 μg peptide, Fraction No. 3",5.9%
same,Radioactivity in 300 μl,"HDL in human plasma; 60 μg peptide, Fraction No. 3",2124 cpm
same,Radioactivity in 50 μl,"HDL in human plasma; 80 μg peptide, Fraction No. 1",4715 cpm
same,Recovery,"HDL in human plasma; 80 μg peptide, Fraction No. 1",60%
same,Radioactivity in 300 μl,"HDL in human plasma; 80 μg peptide, Fraction No. 1",28290 cpm
same,Radioactivity in 50 μl,"HDL in human plasma; 80 μg peptide, Fraction No. 2",2251 cpm
same,Recovery,"HDL in human plasma; 80 μg peptide, Fraction No. 2",28.6%
same,Radioactivity in 300 μl,"HDL in human plasma; 80 μg peptide, Fraction No. 2",13506 cpm
same,Radioactivity in 50 μl,"HDL in human plasma; 80 μg peptide, Fraction No. 3",851 cpm
same,Recovery,"HDL in human plasma; 80 μg peptide, Fraction No. 3",11.3%
same,Radioactivity in 300 μl,"HDL in human plasma; 80 μg peptide, Fraction No. 3",5346 cpm
same,Radioactivity in 50 μl,"HDL in human plasma; 100 μg peptide, Fraction No. 1",5424 cpm
same,Recovery,"HDL in human plasma; 100 μg peptide, Fraction No. 1",67.5%
same,Radioactivity in 300 μl,"HDL in human plasma; 100 μg peptide, Fraction No. 1",32544 cpm
same,Radioactivity in 50 μl,"HDL in human plasma; 100 μg peptide, Fraction No. 2",1708 cpm
same,Recovery,"HDL in human plasma; 100 μg peptide, Fraction No. 2",21.2%
same,Radioactivity in 300 μl,"HDL in human plasma; 100 μg peptide, Fraction No. 2",10248 cpm
same,Radioactivity in 50 μl,"HDL in human plasma; 100 μg peptide, Fraction No. 3",907 cpm
same,Recovery,"HDL in human plasma; 100 μg peptide, Fraction No. 3",11.3%
same,Radioactivity in 300 μl,"HDL in human plasma; 100 μg peptide, Fraction No. 3",5442 cpm
